Where a chain is given by its changes, count along the chain named.
T1: recombinant human IL-27 (human, UniProt Q14213 21-229; Q8NEV9 29-243)
T1 construct: Bought from R&D Systems (Cat. 2526-IL); also called hIL-27; rhIL-27
T1 sequence 1: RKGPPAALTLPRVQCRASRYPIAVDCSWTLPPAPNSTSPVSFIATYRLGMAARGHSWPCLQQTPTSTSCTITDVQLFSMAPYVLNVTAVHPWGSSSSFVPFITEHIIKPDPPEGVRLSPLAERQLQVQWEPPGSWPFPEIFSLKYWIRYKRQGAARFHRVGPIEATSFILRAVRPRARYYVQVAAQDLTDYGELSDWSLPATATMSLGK
T1 sequence 2: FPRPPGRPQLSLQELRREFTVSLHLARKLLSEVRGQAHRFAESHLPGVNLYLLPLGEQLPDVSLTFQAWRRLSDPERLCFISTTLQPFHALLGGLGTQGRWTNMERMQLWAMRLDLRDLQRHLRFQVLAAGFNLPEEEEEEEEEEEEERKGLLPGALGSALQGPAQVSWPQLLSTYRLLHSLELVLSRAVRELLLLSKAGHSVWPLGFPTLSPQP

T2: recombinant mouse IL-27 (mouse, UniProt O35228 19-228; Q8K3I6 29-234, limits assumed)
T2 construct: also called rodent recombinant IL-27
T2 sequence (looked up) 1: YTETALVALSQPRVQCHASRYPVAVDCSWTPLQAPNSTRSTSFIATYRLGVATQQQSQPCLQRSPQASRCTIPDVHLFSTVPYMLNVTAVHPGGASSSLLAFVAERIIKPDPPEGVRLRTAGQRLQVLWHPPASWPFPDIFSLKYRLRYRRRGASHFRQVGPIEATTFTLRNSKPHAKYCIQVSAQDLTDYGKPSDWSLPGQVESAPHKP
T2 sequence (looked up) 2: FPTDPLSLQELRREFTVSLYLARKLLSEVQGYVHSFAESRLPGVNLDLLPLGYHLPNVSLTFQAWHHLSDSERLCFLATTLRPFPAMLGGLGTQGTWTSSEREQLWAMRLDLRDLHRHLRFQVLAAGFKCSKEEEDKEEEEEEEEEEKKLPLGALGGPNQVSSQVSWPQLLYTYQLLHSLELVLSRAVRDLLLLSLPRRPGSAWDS

B1: SRF535 (antibody, V domains shown)
VH: EVQLVESGGGLVQPGGSLRLSCAASGFTFSSYGMSWVRQAPGKGLEWVANIKQDGSEKYYVDSVKGRFTISRDNAKNSLYLQMNSLRAEDTAVYYCARDAPWDIYDYYMDVWGKGTTVTVSS
VL: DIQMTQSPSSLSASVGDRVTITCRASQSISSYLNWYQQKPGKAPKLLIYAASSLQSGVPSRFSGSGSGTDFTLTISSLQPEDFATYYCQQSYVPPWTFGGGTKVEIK
notes: also called SRF535-A; SRF535-B
B2: SRF381 (antibody, V domains shown)
VH: EVQLVESGGGLVKPGGSLRLSCAASGFTFRSYGMNWVRQAPGKGLEWVSSISSSSSYIYYADSVKGRFTISRDNAKNSLYLQMNSLRAEDTAVYYCARDGGRTSYTATAHNWFDPWGQGTLVTVSS
VL: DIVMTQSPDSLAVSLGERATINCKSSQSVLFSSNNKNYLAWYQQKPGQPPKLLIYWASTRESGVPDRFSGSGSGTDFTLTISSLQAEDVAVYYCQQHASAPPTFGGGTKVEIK
notes: also called SRF381-A; SRF381-B
B3: SRF410 (antibody, V domains shown)
VH: QVQLVQSGAEVKKPGSSVKVSCKASGGTFSAYAISWVRQAPGQGLEWMGGIIPIFGTANYAQKFQGRVTITADESTSTAYMELSSLRSEDTAVYYCARSYYSSRWHYYYYMDVWGKGTTVTVSS
VL: DIQMTQSPSSVSASVGDRVTITCRASQGISSWLAWYQQKPGKAPKLLIYAASNLQSGVPSRFSGSGSGTDFTLTISSLQPEDFATYYCQQADDLPLTFGGGTKVEIK
notes: also called SRF410-A; SRF410-B
B4: SRF411 (antibody, V domains shown)
VH: B3 VH with S30E, A31S, A33T, I52A, N59H
VL: B3 VL
notes: also called SRF411-A; SRF411-B
B5: SRF405 (antibody, V domains shown)
VH: B3 VH with S30V, A31G, T57I
VL: B3 VL
notes: also called SRF405-A; SRF405-B
B6: Ab7.6 (antibody, human IgG1, kappa, V domains shown)
VH: EVKLVESGGGLVQPGGSLRLSCAASGFTFTSYSMSWVRQAPGKGLEWVAYISYDGGSAYYPDTVKGRFTISRDNSKKTLYLQMSSLKSEDTAMYYCARHGDYDDDDAMDYWGQGTSVTVSS
VL: DIQMTQSPSSLSASVGDRVTITCRASENIYSYLAWYQQKPGKAPKLLVYNAETLTEGVPSRFSGSGSGTDFTLTISSLQPEDFATYYCQHHYGTPLTFGQGTKLEIKR
notes: human IgG1/kappa
B7: Ab7.7 (antibody, human IgG1, kappa, V domains shown)
VH: B6 VH
VL: B6 VL with A34N
notes: human IgG1/kappa; also called Ab7-VL4 humanized variant
B8: Ab7.11 (antibody, human IgG1, kappa, V domains shown)
VH: B6 VH with K3Q, K77N, S116L
VL: B6 VL with A34N
notes: as for B7
B9: Ab7.15 (antibody, human IgG1, kappa, V domains shown)
VH: B6 VH with S84N, K87R, S88A, M93V, S116L
VL: B6 VL with A34N
notes: as for B7
B10: Ab7.19 (antibody, human IgG1, kappa, V domains shown)
VH: B6 VH with K3Q, K77N, S84N, K87R, S88A, M93V, S116L
VL: B6 VL with A34N
notes: as for B7
B11: Ab7.23 (antibody, human IgG1, kappa, V domains shown)
VH: B6 VH with K3Q, A49S, K77N, S84N, K87R, S88A, M93V, S116L
VL: B6 VL with A34N
notes: as for B7
B12: SRF538 (antibody, V domains shown)
VH: QVQLVESGGGVVQPGRSLRLSCAASGFTFSSYGMHWVRQAPGKGLEWVAVIWYDGSNKYYADSVKGRFTISRDNSKNTLYLQMNSLRAEDTAVYYCARGAPEYVDVWGQGTMVTVSS
VL: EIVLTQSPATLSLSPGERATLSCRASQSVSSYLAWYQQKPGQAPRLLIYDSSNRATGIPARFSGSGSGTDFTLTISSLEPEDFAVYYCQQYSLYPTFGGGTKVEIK
notes: also called SRF538-A; SRF538-B

Assays:
recombinant human IL-27 [1] = target: T1, recombinant human IL-27; assay: SPR (BIACORE 2000) as the paragraph says; values in FIG. 9
recombinant mouse IL-27 = target: T2, recombinant mouse IL-27; assay: column 'Affinity mIL-27 (M)'; method not given
recombinant human IL-27 [2] = target: T1, recombinant human IL-27; assay: column 'Affinity hIL-27 (M)', property (i); method not given, paragraph 885 names SPR (BIACORE 2000)
recombinant human IL-27 [3] = target: T1, recombinant human IL-27; assay: cell-based or functional assay
recombinant human IL-27 [4] = target: T1, recombinant human IL-27; assay: SPR single cycle kinetics, 1:1 model
Description: The antibodies were further characterized by surface plasmon resonance (SPR). Kinetic experiments were performed on a Biacore T200 (GE Healthcare, Uppsala, Sweden). All experiments were run at 25° C. with HBS-P+ running buffer (pH 7.4) (GE Healthcare, Little Chalfont, UK) using hIL-27 (R&D Systems, Abingdon, UK). Human IL-27 (hIL-27) antigen was captured on a CM5 chip to ˜16 RU. Immobilization was carried out at a protein concentration of 1 μg/mL in 10 mM acetate buffer pH 5.0. A three point, three-fold dilution range from 3.3 nM to 30 nM of antibody diluted in HBS-P+ buffer without regeneration between each concentration was used. The association phase for the three injections of increasing concentrations of antibody was monitored for 75 seconds each time and a single dissociation phase was measured for 250 seconds following the last injection of antibody. Regeneration of the hIL-27 surface was conducted using a single injection of 2M MgCl₂ for 120 s. Multiple repeats (n=4) of the chimeric antibody were performed throughout the assay to check the stability of the surface and analyte over the kinetic cycles.

recombinant human IL-27 [5] = target: T1, recombinant human IL-27; assay: SPR (Biacore T200), hIL-27 on CM5 chip, single cycle kinetics

Row | Binder | Kd (recombinant human IL-27 [1]) [nM] | Kd (recombinant human IL-27 [2]) [nM] | Kd (recombinant mouse IL-27) [nM] | binding result (recombinant human IL-27 [5]) | other results
1 | B1 | ≤ 15 | 11.5 | – | – | binding result (recombinant mouse IL-27): no binding
2 | B2 | – | 0.0028 | 0.456 | – | IC50 of inhibition of phosphorylation of STAT1 in HUT-78 cells (recombinant human IL-27 [3]): 0.08 µg/mL; IC50 of inhibition of phosphorylation of STAT1 in U937 cells (recombinant human IL-27 [3]): 0.081 µg/mL; IC50 of inhibition of phosphorylation of STAT1 in pooled human PBMCs (recombinant human IL-27 [3]): 0.141 µg/mL
3 | B3 | ≤ 15 | 0.39 | 5.81 | – | –
4 | B4 | ≤ 15 | 0.43 | 0.546 | – | –
5 | B5 | ≤ 15 | 0.1 | 5.02 | – | –
6 | B6 | – | – | – | – | binding result (recombinant human IL-27 [4]): binds
7 | B7 | – | – | – | no binding (tested: 3.3 nM to 30 nM of antibody) | –
8 | B8 | – | – | – | no binding (tested: 3.3 nM to 30 nM of antibody) | –
9 | B9 | – | – | – | no binding (tested: 3.3 nM to 30 nM of antibody) | –
10 | B10 | – | – | – | no binding (tested: 3.3 nM to 30 nM of antibody) | –
11 | B11 | – | – | – | no binding (tested: 3.3 nM to 30 nM of antibody) | –
12 | B12 | ≤ 15 | 8.93 | 182 | – | –
